Read-outs that look alike come from different tables or passages of the source. Values belong to the molecule of their own block, whether it stands above or below them.
Assays:
[1] = test system: T1, GST-ASPP2 (693-1128), non-phosphorylated
T1 sequence: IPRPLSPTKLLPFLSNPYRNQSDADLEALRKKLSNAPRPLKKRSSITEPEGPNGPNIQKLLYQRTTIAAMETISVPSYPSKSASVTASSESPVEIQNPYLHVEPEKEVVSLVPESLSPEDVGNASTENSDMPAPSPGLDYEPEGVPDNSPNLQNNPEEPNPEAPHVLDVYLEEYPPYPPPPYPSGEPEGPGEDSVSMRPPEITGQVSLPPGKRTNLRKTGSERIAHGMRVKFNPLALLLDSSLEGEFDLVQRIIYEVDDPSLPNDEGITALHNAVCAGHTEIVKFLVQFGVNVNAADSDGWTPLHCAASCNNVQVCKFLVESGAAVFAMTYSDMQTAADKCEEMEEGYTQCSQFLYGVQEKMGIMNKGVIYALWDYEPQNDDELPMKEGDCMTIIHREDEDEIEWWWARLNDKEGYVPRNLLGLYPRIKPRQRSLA

[2] = target: full length ASPP2, V5-tagged (transfected) (Homo sapiens (Human)) (UniProt Q13625); assay: cell-based or functional assay
[3] = target: T2, full length ASPP1, V5-tagged (transfected) (Homo sapiens (Human)) (UniProt Q96KQ4); assay: cell-based or functional assay
T2 sequence: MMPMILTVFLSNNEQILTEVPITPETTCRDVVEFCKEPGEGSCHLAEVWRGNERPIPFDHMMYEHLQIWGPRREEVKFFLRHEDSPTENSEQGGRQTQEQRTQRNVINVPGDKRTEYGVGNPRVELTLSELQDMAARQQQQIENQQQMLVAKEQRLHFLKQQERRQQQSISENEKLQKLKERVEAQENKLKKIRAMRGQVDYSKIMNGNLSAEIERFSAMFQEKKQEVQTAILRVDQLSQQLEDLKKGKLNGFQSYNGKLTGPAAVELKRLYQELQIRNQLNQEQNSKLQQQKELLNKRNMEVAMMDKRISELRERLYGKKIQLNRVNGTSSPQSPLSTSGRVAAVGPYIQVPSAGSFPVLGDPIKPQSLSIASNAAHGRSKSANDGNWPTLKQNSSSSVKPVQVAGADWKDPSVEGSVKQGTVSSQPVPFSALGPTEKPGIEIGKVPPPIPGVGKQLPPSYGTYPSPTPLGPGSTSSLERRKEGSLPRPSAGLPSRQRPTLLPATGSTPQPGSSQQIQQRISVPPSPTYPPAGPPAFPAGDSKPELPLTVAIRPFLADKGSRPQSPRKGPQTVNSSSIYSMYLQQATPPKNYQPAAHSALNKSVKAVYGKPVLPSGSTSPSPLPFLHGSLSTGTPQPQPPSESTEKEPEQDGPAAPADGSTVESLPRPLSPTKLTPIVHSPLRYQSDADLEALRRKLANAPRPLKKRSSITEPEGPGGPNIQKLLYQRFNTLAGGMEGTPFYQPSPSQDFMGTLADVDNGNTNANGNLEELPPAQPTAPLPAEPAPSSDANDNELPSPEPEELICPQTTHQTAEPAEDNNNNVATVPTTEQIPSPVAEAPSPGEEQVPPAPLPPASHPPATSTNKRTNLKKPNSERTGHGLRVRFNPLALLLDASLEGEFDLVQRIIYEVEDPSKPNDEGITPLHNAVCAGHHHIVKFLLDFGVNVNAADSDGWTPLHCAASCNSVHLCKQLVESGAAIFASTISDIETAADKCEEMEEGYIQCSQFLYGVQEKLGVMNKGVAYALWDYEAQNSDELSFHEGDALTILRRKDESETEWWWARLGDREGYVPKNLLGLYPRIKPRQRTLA

[4] = target: full length ASPP2, V5-tagged (transfected) (Homo sapiens (Human)) (UniProt Q13625); assay: cell-based or functional assay; remark: listed apart in the source
[5] = target: purified recombinant Ras loaded with GTP; assay: in vitro immunoprecipitation with V5 antibody, intensity of the Ras bands (FIG. 23B)
[6] = target: purified recombinant Ras loaded with GTP; assay: in vitro immunoprecipitation of purified proteins with V5 antibody, intensity of the ras bands (FIG. 14C-D)
[7] = test system: Ras; assay: In vitro immunoprecipitation of GDP/GTP-loaded Ras with ASPP1 fragment; type: binding; settings: purified recombinant proteins, V5 immunoprecipitation, band intensity
Description: FIG. 14 illustrates that purified N-term ASPP1 binds directly in a preferential manner to Ras.GTP. A. Purified ras was loaded with tritium labelled -GDP, -GTP or not loaded as a control. The cpm counts of the tritium are shown. The differences in cpm is due to the fact that GDP and GTP were not tritium-labelled at the same level. B. Relative loading of ras-GDP and ras-GTP, showing the mol of nucleotide bound to ras. Both ras-GDP and ras-GTP were loaded with an equal amount of nucleotide. C. Loaded ras-GDP and ras-GTP with or without purified N-terminus ASPP1 was immunoprecipitated with a V5 antibody against the ASPP1 fragment. The immunoprecipitations were western blotted against ras to see whether there was direct and preferential binding of ras-GDP and ras-GTP to the amino-terminus of ASPP1. D. The intensity of the ras-GDP and ras-GTP bands pulled down by N-term ASPP1 were measured and shown as a graph. N-terminus ASPP1 binds ras-GTP four fold more strongly than it does to ras-GDP;
FIG. 23. Amino-terminus ASPP1 and ASPP2 preferentially bind activated Ras in vitro and in vivo. (A) Sequence homology between the amino-termini of ASPP1 and ASPP2 and the Ras-association domains (RAD) of RGL2 and AF-6. (B) The Ras protein loaded with either tritium-labelled GDP or GTP, was added to V5-tagged recombinant ASPP1 fragment (1-308) and immunoprecipitated with V5 antibody. As a negative control Ras-GDP and Ras-GTP were immunoprecipitated with V5 antibody in the absence of the ASPP1 fragment. The ASPP1 fragment preferentially bound Ras-GTP to Ras-GDP. The intensity of the bands representing immunoprecipitated Ras was quantified and the values shown as a bar graph in the right panel. […] The ASPP proteins were detected with mAbASPP1.54.1 that is known to cross-react with both ASPP1 and ASPP2. […]
2.5 μg of recombinant protein purified from Escherichia coli was incubated in a total volume of 320 μl assay buffer containing 2 μCi [3H] […] An aliquot of each sample had its tritium content measured to check the equal loading of GDP and GTP. […]

Molecule: PKA
in vitro phosphorylation (P32 incorporation) [1]: MAPK1, PKA, p38SAPK and p90rsk were all found to be able to phosphorylate ASPP2

transactivation function of p53 (bax-luciferase reporter, Saos2 cells) [2]: 3 fold | transactivation function of p53 (bax-luciferase reporter, Saos2 cells) [3]: 2.5 fold | transactivation function of p53 (bax-luciferase reporter, Saos2 cells) [4]: 2.5 fold
Molecule: oncogenic H-RasV12, haemagglutinin-tagged (from UniProt P01112 1-186)

transactivation function of p53 (bax-luciferase reporter, Saos2 cells) [3]: 2.5 fold | transactivation function of p53 (bax-luciferase reporter, Saos2 cells) [4]: 2.5 fold
Molecule: oncogenic K-RasV12, haemagglutinin-tagged (from UniProt P79800 1-185)

Molecule: p38SAPK
in vitro phosphorylation (P32 incorporation) [1]: MAPK1, PKA, p38SAPK and p90rsk were all found to be able to phosphorylate ASPP2

Molecule: p90rsk
in vitro phosphorylation (P32 incorporation) [1]: MAPK1, PKA, p38SAPK and p90rsk were all found to be able to phosphorylate ASPP2

Molecule: recombinant MAPK1
in vitro phosphorylation (P32 incorporation) [1]: MAPK1, PKA, p38SAPK and p90rsk were all found to be able to phosphorylate ASPP2 | in vitro phosphorylation assay with 32P-labelled ATP [1]: When compared to p38 SAPK, MAPK1 was clearly able to phosphorylate the ASPP2 fragment in vitro

fold affinity for Ras-GTP over Ras-GDP [5]: 4 fold | fold binding to ras-GTP over ras-GDP [6]: 4 fold
B1: V5-tagged recombinant ASPP1 fragment (1-308) (protein, not shown: small tags and cut ends)
chain: MMPMILTVFLSNNEQILTEVPITPETTCRDVVEFCKEPGEGSCHLAEVWRGNERPIPFDHMMYEHLQIWGPRREEVKFFLRHEDSPTENSEQGGRQTQEQRTQRNVINVPGDKRTEYGVGNPRVELTLSELQDMAARQQQQIENQQQMLVAKEQRLHFLKQQERRQQQSISENEKLQKLKERVEAQENKLKKIRAMRGQVDYSKIMNGNLSAEIERFSAMFQEKKQEVQTAILRVDQLSQQLEDLKKGKLNGFQSYNGKLTGPAAVELKRLYQELQIRNQLNQEQNSKLQQQKELLNKRNMEVAMMDK

binding of Ras-GTP relative to Ras-GDP [7]: 4 fold | binding of Ras-GTP relative to Ras-GDP ([7]; listed as N-terminus ASPP1): four fold | binding of Ras-GTP relative to Ras-GDP ([7]; listed as N-terminus of ASPP1): four-fold
B2: ASPP1 fragment (1-308): V5-tagged recombinant ASPP1 fragment (1-308) containing the Ras-association domain (protein)
chain: B1 chain
modifications: left off: small tags and cut ends
notes: V5-tagged recombinant ASPP1 fragment (1-308) containing the Ras-association domain

From patent publication US20070225240A1, “Screening Assay and Treatment” (priority 2003, published 2007)
